Experimental data reported in article PMC7187366.
Where two headings read alike, the source gives them in different places.

Experiments:
OsPIL15 [1] = biological target: T1, OsPIL15 (Oryza sativa, UniProt Q0JNI9 1-637); test: competition
T1 sequence: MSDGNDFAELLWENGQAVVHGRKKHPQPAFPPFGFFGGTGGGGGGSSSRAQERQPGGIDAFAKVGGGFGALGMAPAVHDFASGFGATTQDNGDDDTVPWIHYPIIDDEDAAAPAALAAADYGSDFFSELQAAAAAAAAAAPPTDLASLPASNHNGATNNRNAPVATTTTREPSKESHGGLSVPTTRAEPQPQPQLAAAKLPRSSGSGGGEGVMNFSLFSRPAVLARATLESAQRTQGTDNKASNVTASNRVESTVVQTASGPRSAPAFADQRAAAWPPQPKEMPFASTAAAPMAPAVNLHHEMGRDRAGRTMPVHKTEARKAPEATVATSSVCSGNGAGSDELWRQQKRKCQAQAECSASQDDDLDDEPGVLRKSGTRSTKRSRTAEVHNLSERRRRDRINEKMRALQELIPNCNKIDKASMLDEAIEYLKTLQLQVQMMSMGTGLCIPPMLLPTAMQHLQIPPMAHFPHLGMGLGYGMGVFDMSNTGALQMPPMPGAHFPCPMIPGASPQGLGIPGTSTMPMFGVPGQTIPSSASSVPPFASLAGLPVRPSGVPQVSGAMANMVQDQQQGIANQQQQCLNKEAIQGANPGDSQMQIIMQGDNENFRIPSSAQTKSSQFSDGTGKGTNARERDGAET

OsPIL15 [2] = biological target: T1, OsPIL15; test: competition; remark: listed apart in the source

B1: Probe Am (mutant G-boxes) (dsDNA)
DNA 1: TGATCTGACTTTAAACCGGTGACTTTCGCC
DNA 2: GGCGAAAGTCACCGGTTTAAAGTCAGATCA
OsPIL15 [1]
  binding result: no binding

B2: Probe Bm (mutant G-box) (dsDNA)
DNA 1: ATTTTCCTGACTTCACTATGACTTGTT
DNA 2: AACAAGTCATAGTGAAGTCAGGAAAAT
OsPIL15 [2]
  binding result: no binding
